According to US20070009524A1:

Tests used:
[1] = molecular target: human lymphotoxin (TNFβ) (human) (UniProt P01374); experiment: cell-based or functional assay
[2] = molecular target: human tumor necrosis factor-α (TNFα) (human) (UniProt P01375); experiment: cell-based or functional assay
Chain of human tumor necrosis factor-α (TNFα) (human) (P01375 77-233): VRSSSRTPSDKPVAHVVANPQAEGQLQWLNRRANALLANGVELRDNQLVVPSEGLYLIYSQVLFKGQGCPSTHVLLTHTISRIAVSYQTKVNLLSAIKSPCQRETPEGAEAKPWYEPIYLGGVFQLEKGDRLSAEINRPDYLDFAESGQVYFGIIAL

Chain of human lymphotoxin (TNFβ) (human) (P01374 35-205 limits assumed): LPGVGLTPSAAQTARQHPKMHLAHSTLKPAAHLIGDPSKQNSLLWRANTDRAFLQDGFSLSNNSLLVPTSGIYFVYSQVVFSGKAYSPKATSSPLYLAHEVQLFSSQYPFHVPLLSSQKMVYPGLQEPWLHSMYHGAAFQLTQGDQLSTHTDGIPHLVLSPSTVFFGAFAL

Molecule | concentration to half-inhibit human TNFβ at 2 pM (WEHI 164 cytotoxicity) [1] | IL-6 secreted by FS-4 fibroblasts, TNF 0.3 ng/ml, 4 µg/ml antibody [2] | IL-6 secreted by FS-4 fibroblasts, TNF 1.5 ng/ml, 4 µg/ml antibody [2] | IL-6 secreted by FS-4 fibroblasts, TNF 7.5 ng/ml, 4 µg/ml antibody [2]
p75P-sf2 fusion protein (from UniProt P20333 23-204) (Fc fusion) | 31 pM |  |  | 
chimeric mouse/human IgG1 anti-platelet mAb (7E3) (antibody, INN chains, looked up, V domains shown, chimeric IgG1) VH: EVQLQQSGTVLARPGASVKMSCEASGYTFTNYWMHWVKQRPGQGLEWIGAIYPGNSDTSYIQKFKGKAKLTAVTSTTSVYMELSSLTNEDSAVYYCTLYDGYYVFAYWGQGTLVTVSA VL: EIVLTQSPVTLSVTPGDSVSLSCRASRDISNNLHWFQQTSHESPRLLIKYASQSMSGIPSRFSGSGSGTDFTLSINSVETEDFGMYFCQQTNSWPYTFGGGTKLEIK |  | 1.6 ng/mL | 1.96 ng/mL | 2.16 ng/mL
